Measurements as given in US20210024596A1.

Tests used:
histone H4 (human) = histone H4 (human) (UniProt P62805); assay: SPR kinetic assay, ligand H4 captured on the chip, analyte prothrombin fragment 1 at 1.0-6.0 µM
histone H3 (human) = histone H3 (human) (UniProt P68431); assay: SPR kinetic assay, ligand H3 captured on the chip, analyte prothrombin fragment 1 at 1.0-6.0 µM

“recombinant human prothrombin fragment 1 (from UniProt P00734 44-198)” showed a Kd (histone H4 (human)) of 896 nM and a Kd (histone H3 (human)) of 2350 nM.
